The values that follow come from PMC3728347.

For assay [1], the target named is Glycine N-methyltransferase, wild type (UniProt Q14749). In words: SEC; size-exclusion chromatography of wild type GNMT and catalytic-centre mutants; data not shown. (SEC sorts molecules by how far they enter the pores of the column.)
Assay [2] deals with GNMT Y244A mutant (UniProt Q14749). The assay is described as above.
The target in assay [3] is GNMT M218D mutant (UniProt Q14749). The experiment in a line: SEC; size-exclusion chromatography on Sephacryl S300 of the folate-site mutants.
Assay [4] concerns the target GNMT L210S mutant (UniProt Q14749). The description is as above.
Assay [5] concerns the target GNMT D70A mutant (UniProt Q14749). The experiment in a line: SEC; size-exclusion chromatography of wild type GNMT and catalytic-centre mutants; data not shown.
Assay [6] concerns the target GNMT Y6E mutant (UniProt Q14749). In words: SEC; size-exclusion chromatography on Sephacryl S300 of the folate-site mutants.
For assay [7], the target named is GNMT W30F mutant (UniProt Q14749). In words: SEC; size-exclusion chromatography of wild type GNMT and catalytic-centre mutants; data not shown.

For orientation: stoichiometry N means the number of molecules, sites or subunits per partner or assembly. Take “Glycine N-methyltransferase, wild type (from UniProt Q14749 1-295) (enzyme)”: the stoichiometry N in assay [1] was 4.
In assay [2], “GNMT Y244A mutant (from UniProt Q14749 1-295) (enzyme)” registered a stoichiometry N of 4.
“GNMT M218D mutant (from UniProt Q14749 1-295) (enzyme)” came in with a stoichiometry N in assay [3] of 4.
In assay [4], “GNMT L210S mutant (from UniProt Q14749 1-295) (enzyme)” returned a percent of the protein as dimer of 50%, a percent of the protein as monomer of 10% and a percent of the protein as tetramer of 40%.
In the case of “GNMT D70A mutant (from UniProt Q14749 1-295) (enzyme)”, in assay [5], the stoichiometry N came to 4.
The substance “GNMT Y6E mutant (from UniProt Q14749 1-295) (enzyme)” gave a stoichiometry N in assay [6] of 4.
Regarding “GNMT W30F mutant (from UniProt Q14749 1-295) (enzyme)”, in assay [7], the stoichiometry N was 4.
